Measurements from IntAct's records for PubMed 17299042.

B1: Protein BMH2 (Saccharomyces cerevisiae), P34730 (parent)
chain: MSQTREDSVYLAKLAEQAERYEEMVENMKAVASSGQELSVEERNLLSVAYKNVIGARRASWRIVSSIEQKEESKEKSEHQVELIRSYRSKIETELTKISDDILSVLDSHLIPSATTGESKVFYYKMKGDYHRYLAEFSSGDAREKATNSSLEAYKTASEIATTELPPTHPIRLGLALNFSVFYYEIQNSPDKACHLAKQAFDDAIAELDTLSEESYKDSTLIMQLLRDNLTLWTSDISESGQEDQQQQQQQQQQQQQQQQQAPAEQTQGEPTK

Variants of: B1
Conditions: with rad53_yeast RAD53, P22216
Sequence of rad53_yeast RAD53, P22216 (P22216 whole entry): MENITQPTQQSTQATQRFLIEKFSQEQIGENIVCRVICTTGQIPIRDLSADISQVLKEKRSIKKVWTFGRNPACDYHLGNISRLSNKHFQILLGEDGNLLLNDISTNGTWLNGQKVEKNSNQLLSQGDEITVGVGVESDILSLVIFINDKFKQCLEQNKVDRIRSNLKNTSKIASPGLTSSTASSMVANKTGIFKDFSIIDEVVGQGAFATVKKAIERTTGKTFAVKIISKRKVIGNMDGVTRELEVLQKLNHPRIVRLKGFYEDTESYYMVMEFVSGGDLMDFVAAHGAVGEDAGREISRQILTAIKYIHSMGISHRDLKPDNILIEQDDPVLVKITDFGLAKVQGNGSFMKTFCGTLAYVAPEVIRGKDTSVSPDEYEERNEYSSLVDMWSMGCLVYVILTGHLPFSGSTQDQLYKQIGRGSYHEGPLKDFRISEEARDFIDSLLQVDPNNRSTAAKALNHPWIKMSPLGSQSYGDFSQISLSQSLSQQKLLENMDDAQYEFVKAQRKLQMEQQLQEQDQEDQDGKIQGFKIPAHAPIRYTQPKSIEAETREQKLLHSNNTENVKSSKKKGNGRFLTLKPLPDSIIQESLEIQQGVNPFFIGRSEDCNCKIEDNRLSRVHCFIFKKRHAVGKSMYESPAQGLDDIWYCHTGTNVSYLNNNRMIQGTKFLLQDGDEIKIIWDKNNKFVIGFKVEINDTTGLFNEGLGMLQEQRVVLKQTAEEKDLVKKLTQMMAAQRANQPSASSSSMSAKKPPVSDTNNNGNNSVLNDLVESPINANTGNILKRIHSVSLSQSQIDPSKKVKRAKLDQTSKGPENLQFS

Variant	effect of a mutation on the interaction
K51L	decreasing interaction strength
K51R	decreasing interaction strength
E185D	disrupting interaction strength
L225Q	disrupting interaction strength
